Here are results for one molecule from patent publication US20140120555A1.

In assay [1] the target is human CXCR4 (Chemokine receptor 4) (human) (UniProt P61073). Description: FACS on U937 promyelocytic cancer cells (endogenous CXCR4), 10 µg/ml antibody.
The target is the same in assay [2]. Description: FACS on Hela cervix cancer cells (endogenous CXCR4), 10 µg/ml antibody.
Assay [3] has the same target. The experiment in a line: FACS on NIH3T3-CXCR4 transfected cells, 10 µg/ml antibody.
The target is the same in assay [4]. The experiment in a line: FACS on MDA-MB-231 breast cancer cells (endogenous CXCR4), 10 µg/ml antibody.

Chain of human CXCR4 (Chemokine receptor 4) (human) (P61073 whole entry): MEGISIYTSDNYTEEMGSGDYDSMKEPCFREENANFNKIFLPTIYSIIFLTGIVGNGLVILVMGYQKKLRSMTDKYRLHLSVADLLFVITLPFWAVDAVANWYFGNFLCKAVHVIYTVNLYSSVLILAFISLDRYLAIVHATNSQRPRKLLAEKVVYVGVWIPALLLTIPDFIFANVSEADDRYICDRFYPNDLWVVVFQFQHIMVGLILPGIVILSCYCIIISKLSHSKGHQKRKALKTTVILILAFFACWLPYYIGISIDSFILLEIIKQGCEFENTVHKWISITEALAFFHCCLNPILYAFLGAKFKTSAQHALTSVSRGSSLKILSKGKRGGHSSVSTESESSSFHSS

B1: murine monoclonal antibody 515H7 (hybridoma CNCM I-4019) (antibody, V domains shown)
VH: EVNLVESGGGLVQPGGSLRLSCATSGFTFTDNYMSWVRQPPGKALEWLGFIRNKANGYTTDYSASVRGRFTISRDNSQSILYLQMNALRAEDSATYYCARDVGSNYFDYWGQGTTLTVSS
VL: DIVMSQSPSSLAVSAGEKVTMSCKSSQSLFNSRTRKNYLAWYQQKPGQSPKLLIYWASARDSGVPARFTGSGSETYFTLTISRVQAEDLAVYYCMQSFNLRTFGGGTKLEIK
modifications: Biotinylated when used as tracer in the competition assay of Example 3 (site not stated); unlabelled in Example 2.
B1: the MFI in assay [1] is 645 MFI; in assay [2], 1850 MFI; in assay [3], 2750 MFI; in assay [4], 239 MFI.
